± gives the standard deviation of the averaged measurements.
Tests used:
MCF7 = assay: percentage of EdU-negative (G0-arrested) nuclei per well, 72 h; higher = more G0 arrest; conditions: reference: sequence is the full UniProt precursor, the tested protein was the secreted form or ectodomain
hTERT-HMEC = assay: as above; conditions: reference: sequence is the full UniProt precursor, the tested protein was the secreted form or ectodomain
[1] = protein concentration 0.0225 µM
[2] = protein concentration 0.03125 µM
[3] = protein concentration 0.3125 µM
[4] = protein concentration 0.00742857 µM
[5] = protein concentration 0.0742857 µM
[6] = protein concentration 0.0257143 µM
[7] = protein concentration 0.257143 µM
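Also: secreted proteins added to cultured cells, EdU pulse at the end, nuclei found by Hoechst imaging, EdU status from nuclear versus surrounding ring intensity ratio, PBS as neutral control.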

Sequence: MAVAAAAAAAGPAGAGGGRAQRSGLLEVLVRDRWHKVLVNLSEDALVLSSEEGAAAYNGIGTATNGSFCRGAGAGHPGAGGAQPPDSPAGVRTAFTDLPEQVPESISNQKRGVKVLKQELGGLGISIKGGKENKMPILISKIFKGLAADQTQALYVGDAILSVNGADLRDATHDEAVQALKRAGKEVLLEVKYMREATPYVKKGSPVSEIGWETPPPESPRLGGSTSDPPSSQSFSFHRDRKSIPLKMCYVTRSMALADPENRQLEIHSPDAKHTVILRSKDSATAQAWFSAIHSNVNDLLTRVIAEVREQLGKTGIAGSREIRHLGWLAEKVPGESKKQWKPALVVLTEKDLLIYDSMPRRKEAWFSPVHTYPLLATRLVHSGPGKGSPQAGVDLSFATRTGTRQGIETHLFRAETSRDLSHWTRSIVQGCHNSAELIAEISTACTYKNQECRLTIHYENGFSITTEPQEGAFPKTIIQSPYEKLKMSSDDGIRMLYLDFGGKDGEIQLDLHSCPKPIVFIIHSFLSAKITRLGLVA
- percentage of EdU-negative (MCF7; [1]): 27.8 ± 2.2%
- percentage of EdU-negative (MCF7; protein concentration 0.225 µM): 25.6 ± 0.97%
- percentage of EdU-negative (hTERT-HMEC; [1]): 4.71 ± 0.2%
- percentage of EdU-negative (hTERT-HMEC; protein concentration 0.225 µM): 6.28 ± 0.64%

Sequence: MGSRGQGLLLAYCLLLAFASGLVLSRVPHVQGEQQEWEGTEELPSPPDHAERAEEQHEKYRPSQDQGLPASRCLRCCDPGTSMYPATAVPQINITILKGEKGDRGDRGLQGKYGKTGSAGARGHTGPKGQKGSMGAPGERCKSHYAAFSVGRKKPMHSNHYYQTVIFDTEFVNLYDHFNMFTGKFYCYVPGLYFFSLNVHTWNQKETYLHIMKNEEEVVILFAQVGDRSIMQSQSLMLELREQDQVWVRLYKGERENAIFSEELDTYITFSGYLVKHATEP [Q9BXJ1]
- percentage of EdU-negative (MCF7; [1]): 24.69 ± 0.17%
- percentage of EdU-negative (MCF7; protein concentration 0.225 µM): 23.7 ± 2.1%
- percentage of EdU-negative (hTERT-HMEC; [1]): 4.31 ± 0.1%
- percentage of EdU-negative (hTERT-HMEC; protein concentration 0.225 µM): 4.49 ± 0.49%

Sequence: MRPGAPGPLWPLPWGALAWAVGFVSSMGSGNPAPGGVCWLQQGQEATCSLVLQTDVTRAECCASGNIDTAWSNLTHPGNKINLLGFLGLVHCLPCKDSCDGVECGPGKACRMLGGRPRCECAPDCSGLPARLQVCGSDGATYRDECELRAARCRGHPDLSVMYRGRCRKSCEHVVCPRPQSCVVDQTGSAHCVVCRAAPCPVPSSPGQELCGNNNVTYISSCHMRQATCFLGRSIGVRHAGSCAGTPEEPPGGESAEEEENFV
- percentage of EdU-negative (MCF7; [2]): 26 ± 2.5%
- percentage of EdU-negative (MCF7; [3]): 24.7 ± 3.3%
- percentage of EdU-negative (hTERT-HMEC; [2]): 4.24 ± 0.09%
- percentage of EdU-negative (hTERT-HMEC; [3]): 4.84 ± 0.11%

Sequence: MSVMKPCLMTIAILMILAQKTPGGLFRSHNGKSREPWNPCELYQGMCRNACREYEIQYLTCPNDQKCCLKLSVKITSSKNVKEDYDSNSNLSVTNSSSYSHI [Q30KQ4]
- percentage of EdU-negative (MCF7; [1]): 25.4 ± 1.7%
- percentage of EdU-negative (MCF7; protein concentration 0.225 µM): 23.5 ± 1.3%
- percentage of EdU-negative (hTERT-HMEC; [1]): 5.55 ± 0.29%
- percentage of EdU-negative (hTERT-HMEC; protein concentration 0.225 µM): 5.56 ± 0.81%

Sequence: MGKGDPKKPRGKMSSYAFFVQTCREEHKKKHPDASVNFSEFSKKCSERWKTMSAKEKGKFEDMAKADKARYEREMKTYIPPKGETKKKFKDPNAPKRPPSAFFLFCSEYRPKIKGEHPGLSIGDVAKKLGEMWNNTAADDKQPYEKKAAKLKEKYEKDIAAYRAKGKPDAAKKGVVKAEKSKKKKEEEEDEEDEEDEEEEEDEEDEDEEEDDDDE
- percentage of EdU-negative (MCF7; [1]): 23.1 ± 4.2%
- percentage of EdU-negative (MCF7; protein concentration 0.225 µM): 24.5 ± 0.87%
- percentage of EdU-negative (hTERT-HMEC; [1]): 5.16 ± 0.5%
- percentage of EdU-negative (hTERT-HMEC; protein concentration 0.225 µM): 5.64 ± 0.066%

Sequence: MRSLGALLLLLSACLAVSAGPVPTPPDNIQVQENFNISRIYGKWYNLAIGSTCPWLKKIMDRMTVSTLVLGEGATEAEISMTSTRWRKGVCEETSGAYEKTDTDGKFLYHKSKWNITMESYVVHTNYDEYAIFLTKKFSRHHGPTITAKLYGRAPQLRETLLQDFRVVAQGVGIPEDSIFTMADRGECVPGEQEPEPILIPRVRRAVLPQEEEGSGGGQLVTEVTKKEDSCQLGYSAGPCMGMTSRYFYNGTSMACETFQYGGCMGNGNNFVTEKECLQTCRTVAACNLPIVRGPCRAFIQLWAFDAVKGKCVLFPYGGCQGNGNKFYSEKECREYCGVPGDGDEELLRFSN
- percentage of EdU-negative (MCF7; [4]): 27.22 ± 0.12%
- percentage of EdU-negative (MCF7; [1]): 23.9 ± 0.98%
- percentage of EdU-negative (MCF7; [5]): 26 ± 2.5%
- percentage of EdU-negative (MCF7; protein concentration 0.225 µM): 25.2 ± 1.6%
- percentage of EdU-negative (hTERT-HMEC; [4]): 4.92 ± 0.19%
- percentage of EdU-negative (hTERT-HMEC; [1]): 5.59 ± 1.2%
- percentage of EdU-negative (hTERT-HMEC; [5]): 7.02 ± 1.1%
- percentage of EdU-negative (hTERT-HMEC; protein concentration 0.225 µM): 5.52 ± 0.57%

Sequence: MAPPSVPLVLLLVLLLSLAETPASAPAHRGRGGWTLNSAGYLLGPVLHLPQMGDQDGKRETALEILDLWKAIDGLPYSHPPQPSKRNVMETFAKPEIGDLGMLSMKIPKEEDVLKS [Q9UBC7]
- percentage of EdU-negative (MCF7; [6]): 25.7 ± 2.2%
- percentage of EdU-negative (MCF7; [7]): 27.5 ± 3%
- percentage of EdU-negative (hTERT-HMEC; [6]): 5.31 ± 1.9%
- percentage of EdU-negative (hTERT-HMEC; [7]): 6.11 ± 0.2%

Sequence: MCSTMSAPTCLAHLPPCFLLLALVLVPSDASGQSSRNDWQVLQPEGPMLVAEGETLLLRCMVVGSCTDGMIKWVKVSTQDQQEIYNFKRGSFPGVMPMIQRTSEPLNCDYSIYIHNVTREHTGTYHCVRFDGLSEHSEMKSDEGTSVLVKGAGDPEPDLWIIQPQELVLGTTGDTVFLNCTVLGDGPPGPIRWFQGAGLSREAIYNFGGISHPKETAVQASNNDFSILLQNVSSEDAGTYYCVKFQRKPNRQYLSGQGTSLKVKAKSTSSKEAEFTSEPATEMSPTGLLVVFAPVVLGLKAITLAALLLALATSRRSPGQEDVKTTGPAGAMNTLAWSKGQE [Q5JXA9]
- percentage of EdU-negative (MCF7; [1]): 28 ± 1.8%
- percentage of EdU-negative (MCF7; protein concentration 0.225 µM): 26.5 ± 3.1%
- percentage of EdU-negative (hTERT-HMEC; [1]): 5.12 ± 0.92%
- percentage of EdU-negative (hTERT-HMEC; protein concentration 0.225 µM): 5.14 ± 0.34%

From the supplement of paper PMC11316812
